Substitutions are numbered along the chain they refer to. Names may count otherwise.
T1: HipA;HipB (Escherichia coli;Escherichia coli, UniProt P23874;P23873 1-440;1-88, |)
T1 sequence 1: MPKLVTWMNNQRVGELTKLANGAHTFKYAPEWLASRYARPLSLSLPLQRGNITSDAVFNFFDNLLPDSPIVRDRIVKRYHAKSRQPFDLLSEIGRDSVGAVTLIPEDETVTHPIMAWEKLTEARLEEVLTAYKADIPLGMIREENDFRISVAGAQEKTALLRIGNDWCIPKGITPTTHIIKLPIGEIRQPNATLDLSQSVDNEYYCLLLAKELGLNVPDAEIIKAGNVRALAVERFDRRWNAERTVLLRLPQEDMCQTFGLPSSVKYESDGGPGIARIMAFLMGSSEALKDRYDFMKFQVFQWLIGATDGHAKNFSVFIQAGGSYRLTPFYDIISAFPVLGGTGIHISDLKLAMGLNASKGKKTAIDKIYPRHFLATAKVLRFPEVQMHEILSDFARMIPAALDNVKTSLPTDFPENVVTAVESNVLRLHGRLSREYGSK
T1 sequence 2: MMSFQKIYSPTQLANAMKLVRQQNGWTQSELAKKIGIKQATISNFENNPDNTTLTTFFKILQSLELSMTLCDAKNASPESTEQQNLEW

T2: HipB(W88A) (Escherichia coli, UniProt P23873 1-88, W88A)
T2 sequence: T1 sequence 2 with W88A

T3: HipB (Escherichia coli, UniProt P23873 1-88)
T3 sequence: T1 sequence 2

T4: HipB72 (Escherichia coli, UniProt P23873 1-72, del73-88)
T4 sequence: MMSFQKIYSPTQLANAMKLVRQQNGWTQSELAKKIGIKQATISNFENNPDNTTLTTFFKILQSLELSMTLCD

B1: HipB72 (C-terminal truncation of HipB lacking the last 16 residues) (domain or fragment, E. coli, UniProt P23873 1-72, looked up)
chain: T4 sequence
notes: Strain KLE912; also called HipB72 C-terminal truncation protein; pET15b-hipB72; source: E. coli BL21(DE3)pLysS, purified (Ni-NTA)
B2: hipBA O1O2 operator (dsDNA)
DNA 1: TTATCCGCTTAAGGGGATATTATAAGTTTTATCCTTTAGTGAGGATAA
DNA 2: TTATCCTCACTAAAGGATAAAACTTATAATATCCCCTTAAGCGGATAA
B3: HipA toxin (wild type HipA protein) (enzyme, E. coli, UniProt P23874 1-440, looked up)
chain: T1 sequence 1
B4: HipB antitoxin, wild type (natural protein, E. coli, UniProt P23873 1-88, looked up)
chain: T1 sequence 2
notes: HipB, antitoxin and repressor of the hipBA operon of Escherichia coli, 88 residues; also called HipB WT; pET15b-HipB; source: E. coli BL21(DE3)pLysS, purified (Ni-NTA)
B5: HipB(W88A) (natural protein, E. coli, UniProt P23873 1-88, looked up)
chain: T1 sequence 2 with W88A
notes: HipB of Escherichia coli with the C-terminal tryptophan 88 changed to alanine, made by site-directed mutagenesis in pET15b-hipB; Strain KLE911; also called HipB(W88A) protein; pET15b-hipB w88a; source: E. coli BL21(DE3)pLysS, purified (Ni-NTA)

Assays:
[1] = biological target: B3; assay: fluorescence polarisation; HipA titrated into 50 nM HipB (or HipB(W88A), HipB72) pre-incubated 2 min with 1 nM 5'-6-carboxyfluorescein-labelled hipBA O1O2 DNA; 20 mM Tris-HCl pH 7.5, 100 mM NaCl, 5% glycerol; 10 °C; the affinity is formally between HipA and HipB bound to the DNA; conditions: both partners purified
HipA;HipB = biological target: T1, HipA;HipB; assay: fluorescence polarization; HipA titrated into DNA saturated with 50 nM HipB; Kd is formally HipA for DNA-bound HipB; 20 mM Tris-HCl pH 7.5, 100 mM NaCl, 5% glycerol, 10 C, 1 nM labeled DNA; conditions: protein: recombinant;recombinant; tags: His6 (Ni-NTA purified, pET28a);His6 (Ni-NTA purified, pET15b); chain copies: 2;4; label: 5'-6-carboxyfluorescein on top strand; blunt
HipB(W88A) = biological target: T2, HipB(W88A); assay: fluorescence polarization; 1 nM DNA; 20 mM Tris-HCl pH 7.5, 100 mM NaCl, 5% glycerol, 10 C, 1 nM labeled DNA; conditions: protein: recombinant; tags: His6 (Ni-NTA purified); chain copies: 2; label: 5'-6-carboxyfluorescein on top strand; blunt
HipB = biological target: T3, HipB; assay: as above; conditions: protein: recombinant; tags: His6 (Ni-NTA purified, pET15b); chain copies: 2; label: 5'-6-carboxyfluorescein on top strand; blunt
HipB72 = biological target: T4, HipB72; assay: as above; conditions: protein: recombinant; tags: His6 (Ni-NTA purified); chain copies: 2; label: 5'-6-carboxyfluorescein on top strand; blunt
[2] = biological target: B4; assay: cell-based or functional assay
[3] = biological target: B3; assay: fluorescence polarisation; HipA titrated into 50 nM HipB (or HipB(W88A), HipB72) pre-incubated 2 min with 1 nM 5'-6-carboxyfluorescein-labelled hipBA O1O2 DNA; 20 mM Tris-HCl pH 7.5, 100 mM NaCl, 5% glycerol; 10 °C; the affinity is formally between HipA and HipB bound to the DNA; conditions: both partners purified; remark: listed apart in the source

**Q.** Does B1 bind [1]?
**A.** binds

**Q.** Which Kd (HipA;HipB) does the source give for B2 here?
**A.** 1000 ± 600 nM

**Q.** What about the Kd (HipB(W88A)) of the same binder?
**A.** 0.9 ± 0.4 nM

**Q.** What about the Kd (HipB) of the same binder?
**A.** 0.6 ± 0.1 nM

**Q.** And the Kd (HipB72)?
**A.** 0.4 ± 0.1 nM

**Q.** How did the “half-life of His6-HipB (0.48 µM) in the in vitro degradation assay with His6-Lon (0.6 µM) when purified His6-HipA (0.48 µM) is added, against lysozyme as control protein” value [2] turn out when B3 was run?
**A.** > 3.33 h

**Q.** B4 was tested. Which Kd [3] did it give?
**A.** 1000 ± 600 nM

**Q.** B5 was tested. Which Kd [3] did it give?
**A.** 1200 ± 300 nM

Source: article PMC3376134, “Regulation of the Escherichia coli HipBA Toxin-Antitoxin System by Proteolysis” (PLoS ONE, 2012)
